Measurements from patent US20240263160A1 (BIOMARIN PHARMACEUTICAL, published 2024).

Molecular target: IGF2 receptor (cation-independent mannose-6-phosphate receptor)
Test: IGF2 receptor binding assay; average over the BMN001 lots used in the nonclinical studies; format and competitor not described

B1: BMN001 therapeutic fusion protein (mature human Naglu fused through a rigid linker to a furin-resistant IGF-II peptide, amino acids 8-67 of mature human IGF-II … (enzyme)
chain: DEAREAAAVRALVARLLGPGPAADFSVSVERALAAKPGLDTYSLGGGGAARVRVRGSTGVAAAAGLHRYLRDFCGCHVAWSGSQLRLPRPLPAVPGELTEATPNRYRYYQNVCTQSYSFVWWDWARWEREIDWMALNGINLALAWSGQEAIWQRVYLALGLTQAEINEFFTGPAFLAWGRMGNLHTWDGPLPPSWHIKQLYLQHRVLDQMRSFGMTPVLPAFAGHVPEAVTRVFPQVNVTKMGSWGHFNCSYSCSFLLAPEDPIFPIIGSLFLRELIKEFGTDHIYGADTFNEMQPPSSEPSYLAAATTAVYEAMTAVDTEAVWLLQGWLFQHQPQFWGPAQIRAVLGAVPRGRLLVLDLFAESQPVYTRTASFQGQPFIWCMLHNFGGNHGLFGALEAVNGGPEAARLFPNSTMVGTGMAPEGISQNEVVYSLMAELGWRKDPVPDLAAWVTSFAARRYGVSHPDAGAAWRLLLRSVYNCSGEACRGHNRSPLVRRPSLQMNTSIWYNRSDVFEAWRLLLTSAPSLATSPAFRYDLLDLTRQAVQELVSLYYEEARSAYLSKELASLLRAGGVLAYELLPALDEVLASDSRFLLGSWLEQARAAAVSEAEADFYEQNSRYQLTLWGPEGNILDYANKQLAGLVANYYTPRWRLFLEALVDSVAQGIPFQQHQFDKNVFQLEQAFVLSKQRYPSQPRGDTVDLAKKIFLKYYPRWVAGSWGAPGGGSPAPAPTPAPAPTPAPAGGGPSGAPLCGGELVDTLQFVCGDRGFYFSRPASRVSARSRGIVEECCFRSCDLALLETYCATPAKSE
notes: also called Naglu/IGF-II fusion protein
Question: How did the IC50 turn out when B1 was run?
Answer: The IC50 was 0.28 nM.
